Results published in US20230272116A1 (Hoffmann-La Roche, published 2023).

T1: Carcinoembryonic antigen (CEA), Carcinoembryonic antigen-related cell adhesion molecule 5 (CEACAM5), on cells (human, UniProt P06731 35-685)
T1 construct: whole, on cells; also called CEA on MKN-45 cells; CEA in BxPC3 tumours
T1 sequence (looked up): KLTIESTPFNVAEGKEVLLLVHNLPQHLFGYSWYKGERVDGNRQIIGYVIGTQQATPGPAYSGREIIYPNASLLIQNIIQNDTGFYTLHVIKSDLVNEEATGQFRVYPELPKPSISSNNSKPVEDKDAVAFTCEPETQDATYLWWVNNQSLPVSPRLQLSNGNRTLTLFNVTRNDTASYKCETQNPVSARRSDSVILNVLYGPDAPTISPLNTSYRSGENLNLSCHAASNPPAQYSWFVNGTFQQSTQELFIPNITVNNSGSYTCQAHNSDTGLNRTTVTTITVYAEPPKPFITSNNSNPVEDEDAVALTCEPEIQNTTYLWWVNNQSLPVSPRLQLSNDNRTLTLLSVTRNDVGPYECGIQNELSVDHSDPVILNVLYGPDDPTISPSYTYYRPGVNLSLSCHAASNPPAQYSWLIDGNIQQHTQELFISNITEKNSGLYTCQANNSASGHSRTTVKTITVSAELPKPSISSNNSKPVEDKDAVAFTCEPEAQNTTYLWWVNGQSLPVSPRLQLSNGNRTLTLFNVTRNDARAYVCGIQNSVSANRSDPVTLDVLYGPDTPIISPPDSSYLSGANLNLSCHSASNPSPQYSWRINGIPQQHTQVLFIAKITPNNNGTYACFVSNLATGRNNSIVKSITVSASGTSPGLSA

B1: P1AF0712 (CEA CH1A1A split DOTA-VL) (antibody, human IgG1, kappa, L234A L235A)
heavy 1: not shown
heavy 2: QVQLVQSGAEVKKPGASVKVSCKASGYTFTEFGMNWVRQAPGQGLEWMGWINTKTGEATYVEEFKGRVTFTTDTSTSTAYMELRSLRSDDTAVYYCARWDFAYYVEAMDYWGQGTTVTVSSASTKGPSVFPLAPSSKSTSGGTAALGCLVKDYFPEPVTVSWNSGALTSGVHTFPAVLQSSGLYSLSSVVTVPSSSLGTQTYICNVNHKPSNTKVDKKVEPKSCDKTHTCPPCPAPEAAGGPSVFLFPPKPKDTLMISRTPEVTCVVVDVSHEDPEVKFNWYVDGVEVHNAKTKPREEQYNSTYRVVSVLTVLHQDWLNGKEYKCKVSNKALGAPIEKTISKAKGQPREPQVCTLPPSRDELTKNQVSLSCAVKGFYPSDIAVEWESNGQPENNYKTTPPVLDSDGSFFLVSKLTVDKSRWQQGNVFSCSVMHEALHNHYTQKSLSLSPGGGGGSGGGGSGGGGSGGGGSQAVVIQESALTTPPGETVTLTCGSSTGAVTASNYANWVQEKPDHLFTGLIGGHNNRPPGVPARFSGSLIGDKAALTIAGTQTEDEAIYFCALWYSDHWVIGGGTKLTVL
light: DIQMTQSPSSLSASVGDRVTITCKASAAVGTYVAWYQQKPGKAPKLLIYSASYRKRGVPSRFSGSGSGTDFTLTISSLQPEDFATYYCHQYYTYPLFTFGQGTKLEIKRTVAAPSVFIFPPSDEQLKSGTASVVCLLNNFYPREAKVQWKVDNALQSGNSQESVTEQDSKDSTYSLSSTLTLSKADYEKHKVYACEVTHQGLSSPVTKSFNRGEC
notes: CH1A1A anti-CEA IgG1 (knob-into-hole); also called CEA specific SPLIT antibody; P6_A
B2: P1AF0713 (CEA CH1A1A split DOTA-VH-AST) (antibody, human IgG1, kappa, L234A L235A)
heavy 1: QVQLVQSGAEVKKPGASVKVSCKASGYTFTEFGMNWVRQAPGQGLEWMGWINTKTGEATYVEEFKGRVTFTTDTSTSTAYMELRSLRSDDTAVYYCARWDFAYYVEAMDYWGQGTTVTVSSASTKGPSVFPLAPSSKSTSGGTAALGCLVKDYFPEPVTVSWNSGALTSGVHTFPAVLQSSGLYSLSSVVTVPSSSLGTQTYICNVNHKPSNTKVDKKVEPKSCDKTHTCPPCPAPEAAGGPSVFLFPPKPKDTLMISRTPEVTCVVVDVSHEDPEVKFNWYVDGVEVHNAKTKPREEQYNSTYRVVSVLTVLHQDWLNGKEYKCKVSNKALGAPIEKTISKAKGQPREPQVCTLPPSRDELTKNQVSLSCAVKGFYPSDIAVEWESNGQPENNYKTTPPVLDSDGSFFLVSKLTVDKSRWQQGNVFSCSVMHEALHNHYTQKSLSLSPG
heavy 2: not shown
light: B1 light
notes: CH1A1A anti-CEA IgG1 (knob-into-hole); also called CEA specific SPLIT antibody; P6_B
B3: CEA-split-DOTAM-VH P1AD8749 (antibody, human IgG1, kappa, L234A L235A)
heavy 1: B2 heavy 1
heavy 2: not shown
light: B1 light
notes: CH1A1A anti-CEA IgG1 (knob-into-hole, PG LALA); Both heavy chains carry VH-CH1, so the light chain pairs with each; also called PRIT Split Antibody with DOTAM-VH; hemibody

Key:
[1] = biological target: B2; test: cell-based or functional assay
[2] = biological target: T1, Carcinoembryonic antigen (CEA), …; test: flow cytometry on MKN-45 cells, detection with anti-huIgG(H+L)-Alexa488
Description: MKN-45 cells were detached from the culture bottle using Trypsin and were counted using a Casy cell counter. After pelleting at 4° C., 300 g the cells were resuspended in FACS Buffer (2.5% FCS in PBS), adjusted to 2.0E+06 cells/mL dispensed to 96-well PP V-bottom-Platte (25 μL/well=5.0E+04 Zellen/well).
Both antibodies were added to the cells either separated followed by buffer or combined and incubated at 4° C. for 1 h. The cells were then washed twice in FACS buffer. After washing, the cells were resuspended in 50 μL FACS-buffer containing secondary antibody (<huIgG(H+L)>-Alexa488, c=10 μg/mL) and incubated 1 h at 4° C. The cells were then washed twice in FACS buffer and resuspended in 70 μl/well FACS buffer for measurement using a FACS Canto (BD, Pharmingen).

[3] = biological target: T1, Carcinoembryonic antigen (CEA), …; test: FACS on MKN-45 cells; hemibody mixed 1:1 with human ISO control; detection with anti-human IgG(H+L) secondary antibody
Description: To assess the functionality of the split antibodies or hemibodies, MKN-45 cells were detached from the culture vessel using accutase at 37° C. for 10 minutes. Subequently, the cells were washed twice in PBS, and seeded into 96 well v-bottom plates to a final density of 4×10⁶ cells/well.
Subsequently, the cells were incubated for 1 h on ice and washed twice in PBS. The cell pellet was resuspended and 40 μl/well of detection reagent was added, either <human IgG(H+L)>FITC, (10 μg/ml) or Pb_Dotam_FITC 1:100=>(10 μg/ml) in PBS/5% FCS. After 60 min incubation on ice, the cells were washed twice in PBS and resuspended in 200 μl PBS/5% FCS for measurement of FITC fluorescence using a FACS canto.

Binder | EC50 µg/ml absolute, DOTA-FITC (Pb-DOTA-FITC detection on MKN-45 cells, FACS) [1] [µg/mL] | EC50 [2] [µg/mL] | EC50 (read off the curve) [3] [µg/mL]
B1 | 2.4 | 2.7 | –
B2 | – | 2.3 | –
B3 | – | – | ~1
